As a reminder, the Kd is the free concentration of one partner at which half of the binding sites on the other are occupied at equilibrium, for simple one-to-one binding.

The target of assay [1] is CD40 (native receptor on the surface of human cells) (human, UniProt P25942 21-277). Description: cell-based or functional assay.
Assay [2] concerns the target T1, human CD40-Fc (Enzo, catalogue number ALX-522-016-C050) (human, UniProt P25942 21-193).
T1 construct: Bought reagent; also called immobilized CD40-receptor; not shown: Fc part of the bought fusion protein, not described
Description: QCM (Attana A100), human CD40-Fc immobilized, analyte at 1, 5 and 10 µg/ml. The procedure: The equilibrium binding constants (KD) of trivalent constructs of CD40L (e.g.: PROTEIN X) and hexavalent constructs of CD40L (e.g. PROTEIN A, PROTEIN B, and PROTEIN C) to CD40 was calculated based on kinetic binding data (kₒₙ and koff) determined with an automated biosensor system (Attana A100). The A100 allows to investigate molecular interactions in real-time based on the Quartz Crystal Microbalance (QCM) technique.
For this purpose human CD40-Fc, purchased from Enzo (catalogue number: ALX-522-016-C050), was immobilized on the surface of a carboxyl-activated QCM-chip. Trimeric and hexameric CD40L-constructs were used as soluble analyte at concentrations of 1, 5, and 10 μg/ml. Binding (kₒₙ) and dissociation (koff) was analyzed.

Sequence of CD40 (native receptor on the surface of human cells) (P25942 21-277): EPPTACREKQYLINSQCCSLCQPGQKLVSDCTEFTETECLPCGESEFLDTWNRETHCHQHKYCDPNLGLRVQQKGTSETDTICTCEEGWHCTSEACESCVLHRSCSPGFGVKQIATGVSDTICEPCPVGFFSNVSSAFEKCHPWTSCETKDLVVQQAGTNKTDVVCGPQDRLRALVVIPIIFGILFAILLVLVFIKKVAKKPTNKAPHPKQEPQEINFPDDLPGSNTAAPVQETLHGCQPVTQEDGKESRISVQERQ
T1 sequence (P25942 21-193 limits assumed): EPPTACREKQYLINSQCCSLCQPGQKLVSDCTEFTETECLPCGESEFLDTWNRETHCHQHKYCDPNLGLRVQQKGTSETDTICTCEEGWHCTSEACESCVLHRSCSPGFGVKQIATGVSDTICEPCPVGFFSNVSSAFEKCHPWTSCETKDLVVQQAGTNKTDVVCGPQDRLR

B1: PROTEIN-X2 (ligand)
chain: QIAAHVISEASSKTTSVLQWAEKGYYTMSNNLVTLENGKQLTVKRQGLYYIYAQVTFCSNREASSQAPFIASLCLKSPGRFERILLRAANTHSSAKPCGQQSIHLGGVFELQPGASVFVNVTDPSQVSHGTGFTSFGLLKLGSSSSSSAWSHPQFEK
With B1, in assay [1], the “CD86 (MFI), monocytes 3 d, 10 ng/mL” value was found to be 11 MFI; the “CD86 (MFI), monocytes 3 d, 100 ng/mL” value was found to be 12 MFI; the “CD86 (MFI), monocytes 3 d, 1000 ng/mL” value amounted to 11 MFI; the “HLA-DR,DP (MFI), monocytes 3 d, 10 ng/mL” value was 26 MFI. Moreover, in assay [1], the “HLA-DR,DP (MFI), monocytes 3 d, 100 ng/mL” value worked out at 29 MFI; the “HLA-DR,DP (MFI), monocytes 3 d, 1000 ng/mL” value came to 22 MFI; the “Percentage of macrophages that are CD86+, 3 d, 10 ng/mL” value amounted to 7%; the “Percentage of macrophages that are CD86+, 3 d, 100 ng/mL” value was found to be 7%. Further, in assay [1], the “Percentage of macrophages that are CD86+, 3 d, 1000 ng/mL” value was found to be 8%; the “Percentage of macrophages that are CD206+ and CD163+ (M2-like), 3 d, 10 ng/mL” value was determined as 21%; the “Percentage of macrophages that are CD206+ and CD163+ (M2-like), 3 d, 100 ng/mL” value turned out to be 23%; the “Percentage of macrophages that are CD206+ and CD163+ (M2-like), 3 d, 1000 ng/mL” value is 21%. For the same molecule, in assay [1], the “Percentage of macrophages that are HLA-DR,DP+, 3 d, 10 ng/mL” value amounted to 5%; the “Percentage of macrophages that are HLA-DR,DP+, 3 d, 100 ng/mL” value was found to be 7%; the “Percentage of macrophages that are HLA-DR,DP+, 3 d, 1000 ng/mL” value amounted to 2%.

B2: PROTEIN X (ligand)
chain: QIAAHVISEASSKTTSVLQWAEKGYYTMSNNLVTLENGKQLTVKRQGLYYIYAQVTFCSNREASSQAPFIASLCLKSPGRFERILLRAANTHSSAKPCGQQSIHLGGVFELQPGASVFVNVTDPSQVSHGTGFTSFGLLKLGSGSSGSSGSSGSGYIEDAPSDGKFYVRKDGAWVELPTASGPSSSSSSAWSHPQFEK
notes: Three identical polypeptides; also called trivalent control protein; homotrimeric CD40L-RBD stabilized by RB69 trimerisation scaffold
As for B2, in assay [1], the “CD86 (MFI), monocytes 3 d, 10 ng/mL” value amounted to 11 MFI; the “CD86 (MFI), monocytes 3 d, 100 ng/mL” value is 11 MFI; the “CD86 (MFI), monocytes 3 d, 1000 ng/mL” value was 12 MFI; the “HLA-DR,DP (MFI), monocytes 3 d, 10 ng/mL” value stood at 26 MFI. Besides, in assay [1], the “HLA-DR,DP (MFI), monocytes 3 d, 100 ng/mL” value was 26 MFI; the “HLA-DR,DP (MFI), monocytes 3 d, 1000 ng/mL” value was found to be 31 MFI; the “Percentage of macrophages that are CD86+, 3 d, 10 ng/mL” value came to 7%; the “Percentage of macrophages that are CD86+, 3 d, 100 ng/mL” value amounted to 8%. Moreover, in assay [1], the “Percentage of macrophages that are CD86+, 3 d, 1000 ng/mL” value was determined as 16%; the “Percentage of macrophages that are CD206+ and CD163+ (M2-like), 3 d, 10 ng/mL” value turned out to be 17%; the “Percentage of macrophages that are CD206+ and CD163+ (M2-like), 3 d, 100 ng/mL” value was determined as 21%; the “Percentage of macrophages that are CD206+ and CD163+ (M2-like), 3 d, 1000 ng/mL” value came out at 10%. Moreover, in assay [1], the “Percentage of macrophages that are HLA-DR,DP+, 3 d, 10 ng/mL” value turned out to be 5%; the “Percentage of macrophages that are HLA-DR,DP+, 3 d, 100 ng/mL” value is 6%; the “Percentage of macrophages that are HLA-DR,DP+, 3 d, 1000 ng/mL” value was 12%. Also, the Kd in assay [2] was found to be 9.05 nM.
